T1: B7-H3 on B7-H3-expressing cancer cells (UniProt Q5ZPR3 29-534, limits assumed)
T1 construct: whole, on cells; Endogenous expression on tumour cell lines; also called B7-H3 expressing cells; CD276
T1 sequence (looked up): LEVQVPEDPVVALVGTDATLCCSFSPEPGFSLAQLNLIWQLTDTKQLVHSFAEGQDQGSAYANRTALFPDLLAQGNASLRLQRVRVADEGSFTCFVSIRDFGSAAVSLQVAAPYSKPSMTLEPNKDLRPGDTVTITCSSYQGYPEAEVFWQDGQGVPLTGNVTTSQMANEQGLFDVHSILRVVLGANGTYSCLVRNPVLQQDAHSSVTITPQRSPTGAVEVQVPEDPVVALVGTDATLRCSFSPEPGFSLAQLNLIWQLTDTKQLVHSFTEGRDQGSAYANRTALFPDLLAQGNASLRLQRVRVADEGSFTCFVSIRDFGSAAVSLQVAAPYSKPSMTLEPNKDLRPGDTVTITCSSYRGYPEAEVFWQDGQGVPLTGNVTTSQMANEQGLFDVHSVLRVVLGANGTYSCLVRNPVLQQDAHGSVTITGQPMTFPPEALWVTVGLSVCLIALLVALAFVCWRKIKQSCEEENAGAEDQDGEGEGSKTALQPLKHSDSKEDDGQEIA

B1: 27B4H4L3 antibody (antibody, human IgG1, kappa)
heavy: EVQLVQSGAEVKKPGESLKISCKASGYTFTTYWIGWVRQMPGKGLEWMGIIYPGDGGSRYSPSFQGQVTISADKSISTAYLQWSSLKASDTAMYYCARGGNYISFPMYYWGQGTLVTVSSASTKGPSVFPLAPSSKSTSGGTAALGCLVKDYFPEPVTVSWNSGALTSGVHTFPAVLQSSGLYSLSSVVTVPSSSLGTQTYICNVNHKPSNTKVDKRVEPKSCDKTHTCPPCPAPELVGGPSVFLLPPKPKDTLMISRTPEVTCVVVDVSHEDPEVKFNWYVDGVEVHNAKTKPPEEQYNSTLRVVSVLTVLHQDWLNGKEYKCKVSNKALPAPIEKTISKAKGQPREPQVYTLPPSREEMTKNQVSLTCLVKGFYPSDIAVEWESNGQPENNYKTTPLVLDSDGSFFLYSKLTVDKSRWQQGNVFSCSVMHEALHNHYTQKSLSLSPGK
light: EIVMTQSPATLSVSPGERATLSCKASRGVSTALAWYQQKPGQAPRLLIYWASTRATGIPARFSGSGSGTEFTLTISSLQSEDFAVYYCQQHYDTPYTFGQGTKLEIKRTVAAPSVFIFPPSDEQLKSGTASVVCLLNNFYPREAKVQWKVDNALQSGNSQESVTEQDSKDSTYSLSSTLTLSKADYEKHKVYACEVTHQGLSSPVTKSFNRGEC
notes: also called 27B4H43L3
B2: 27B4H4L3-MMAE (antibody, human IgG1, kappa)
heavy: B1 heavy
light: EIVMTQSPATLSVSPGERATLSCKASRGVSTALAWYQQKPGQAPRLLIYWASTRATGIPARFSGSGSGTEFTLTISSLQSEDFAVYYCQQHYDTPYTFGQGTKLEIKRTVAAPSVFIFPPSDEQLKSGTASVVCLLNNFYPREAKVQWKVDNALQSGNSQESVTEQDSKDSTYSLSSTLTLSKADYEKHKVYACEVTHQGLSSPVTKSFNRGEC
modifications: may carry MC-Val-Cit-PAB-MMAE on an inter-chain disulfide cysteine; positions not given; MC-Val-Cit-PAB-MMAE drug-linker on cysteines of partially reduced inter-chain disulfide bonds; main peaks DAR2, DAR4, DAR6, minor DAR0 and DAR8; positions not given
notes: a mixture of DAR species; also called ADC made of 27B4H4L3 antibody

Columns and labels:
[1] = target: T1, B7-H3 on B7-H3-expressing cancer cells; assay: FACS on HT-29 (colon) cells
Method: (§1) Screening for B7-H3-expressing cells were performed using FACS with 27B4H4L3 antibody and MFI of 27B4H4L3 to those cells shown in Table 2. FACS assay was also used to exam and compare the binding capabilities of the 27B4H4L3 antibody, BH73 antibody, 27B4H4L3-MMAE and BH73-Eribulin to B7-H3-expressing cells. To perform the assay, target cells and samples were incubated at 4° C. for 1 h. After wash, samples and secondary antibody (goat pAb to human IgG (FITC) (Abcam, ab97224)) were incubated. FACS was performed on […] (BD, Accuri C6 Plus) and mean fluorescence intensity (MFI) was reported. Three cell lines (U87MG, BT-474 and HT-29) representing B7-H3 high- and low-expressing cells were used to compare binding capacities of different antibody constructs and ADCs.

[2] = target: T1, B7-H3 on B7-H3-expressing cancer cells; assay: FACS on BT-474 (breast) cells
Method: as §1

[3] = target: T1, B7-H3 on B7-H3-expressing cancer cells; assay: FACS on U87 (glioma) cells
Method: as §1

Binder | MFI [1] [MFI] | MFI [2] [MFI] | MFI [3] [MFI]
B1 | 69500 | 126000 | 314000
B2 | 65300 | 126000 | 290000

From patent US20230414781A1 (BLISS BIOPHARMACEUTICAL HANGZHOU, published 2023)
